These results are taken from patent US12281147 (dated 2025).

In the assay the target is IL-21_mouse_WT Fc fusion protein (mouse; human, UniProt Q9ES17 18-146). Description: BLI. In general terms: Biolayer interferometry detects binding as a change in optical thickness at a sensor tip.

B1: recombinant human IL-21R His tag (Acro Biosystems) (receptor, not shown: small tags and cut ends)
chain: not shown
B1 registered a Kd of 6.38 nM.

B2: mouse IL-21R, His-tagged (BLI antigen) (receptor, not shown: small tags and cut ends)
chain: not shown
With B2, the Kd is 5.08 nM.

The Kd is the equilibrium constant for the complex coming apart.
